Results on 3 molecules are retold here after publication PMC4729957, “The Atg1–kinase complex tethers Atg9-vesicles to initiate autophagy” (Nature Communications, 2016).

B2: Atg13 (natural protein, S. cerevisiae, UniProt Q06628 1-738, looked up)
chain: MVAEEDIEKQVLQLIDSFFLKTTLLICSTESSRYQSSTENIFLFDDTWFEDHSELVSELPEIISKWSHYDGRKELPPLVVETYLDLRQLNSSHLVRLKDHEGHLWNVCKGTKKQEIVMERWLIELDNSSPTFKSYSEDETDVNELSKQLVLLFRYLLTLIQLLPTTELYQLLIKSYNGPQNEGSSNPITSTGPLVSIRTCVLDGSKPILSKGRIGLSKPIINTYSNALNESNLPAHLDQKKITPVWTKFGLLRVSVSYRRDWKFEINNTNDELFSARHASVSHNSQGPQNQPEQEGQSDQDIGKRQPQFQQQQQPQQQQQQQQQQQRQHQVQTQQQRQIPDRRSLSLSPCTRANSFEPQSWQKKVYPISRPVQPFKVGSIGSQSASRNPSNSSFFNQPPVHRPSMSSNYGPQMNIEGTSVGSTSKYSSSFGNIRRHSSVKTTENAEKVSKAVKSPLQPQESQEDLMDFVKLLEEKPDLTIKKTSGNNPPNINISDSLIRYQNLKPSNDLLSEDLSVSLSMDPNHTYHRGRSDSHSPLPSISPSMHYGSLNSRMSQGANASHLIARGGGNSSTSALNSRRNSLDKSSNKQGMSGLPPIFGGESTSYHHDNKIQKYNQLGVEEDDDDENDRLLNQMGNSATKFKSSISPRSIDSISSSFIKSRIPIRQPYHYSQPTTAPFQAQAKFHKPANKLIDNGNRSNSNNNNHNGNDAVGVMHNDEDDQDDDLVFFMSDMNLSKEG
notes: Atg13, S. cerevisiae BY4741, open reading frame from genomic DNA; source: E. coli Rosetta, purified (Ni-NTA, anion exchange)

In data set [1] the target is T1, Atg1 (S. cerevisiae, UniProt P53104 1-897, phosphothreonine at 226 (T226)).
T1 construct: Atg1, S. cerevisiae BY4741, open reading frame from genomic DNA; also called full-length Atg1; Atg1–kinase; source: High Five (BTI-TN-5B1–4) insect cells, purified (Ni-NTA, SEC)
T1 sequence (looked up): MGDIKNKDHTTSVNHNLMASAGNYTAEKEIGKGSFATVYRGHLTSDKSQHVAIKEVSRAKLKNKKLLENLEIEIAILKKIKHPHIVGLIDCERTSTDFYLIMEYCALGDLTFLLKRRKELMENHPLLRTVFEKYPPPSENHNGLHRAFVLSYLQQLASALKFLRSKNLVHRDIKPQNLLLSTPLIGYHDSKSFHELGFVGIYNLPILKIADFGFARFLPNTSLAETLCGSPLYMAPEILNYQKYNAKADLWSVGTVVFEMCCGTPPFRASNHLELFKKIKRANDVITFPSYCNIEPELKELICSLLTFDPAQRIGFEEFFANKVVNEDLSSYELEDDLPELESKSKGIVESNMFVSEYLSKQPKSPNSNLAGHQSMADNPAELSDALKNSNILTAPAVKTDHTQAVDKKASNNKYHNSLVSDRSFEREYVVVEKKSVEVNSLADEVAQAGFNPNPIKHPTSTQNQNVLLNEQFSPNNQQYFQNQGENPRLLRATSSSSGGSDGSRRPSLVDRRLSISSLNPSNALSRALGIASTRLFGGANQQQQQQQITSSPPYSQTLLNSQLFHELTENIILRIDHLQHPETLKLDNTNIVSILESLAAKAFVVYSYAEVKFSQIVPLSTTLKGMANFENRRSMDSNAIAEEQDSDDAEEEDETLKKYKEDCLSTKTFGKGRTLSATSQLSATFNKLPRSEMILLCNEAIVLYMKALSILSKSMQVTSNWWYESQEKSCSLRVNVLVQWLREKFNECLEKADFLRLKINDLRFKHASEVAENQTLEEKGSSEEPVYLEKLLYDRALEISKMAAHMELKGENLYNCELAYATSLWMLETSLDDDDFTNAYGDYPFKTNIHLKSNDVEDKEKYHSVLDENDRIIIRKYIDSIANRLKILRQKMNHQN
The data set is described as follows: SEC; ATP added to fully assembled Atg1^PC (Atg13, Atg29 and Atg1 become phosphorylated by Atg1); SEC and SDS–PAGE of the fractions. The following applies: both partners purified.

In data set [2] the target is T1, Atg1. In words: SEC; complexes assembled from purified subunits or subcomplexes, 30 min at room temperature, then gel filtration on Superose 6. The following applies: both partners purified.
Data set [3] concerns the molecule itself. The data set is described as follows: dynamic light scattering; Stokes radii (RH) of the purified proteins and complexes in solution.
The data set “Atg13” has as its target B2. The data set is described as follows: SEC; complexes assembled from purified subunits or subcomplexes, 30 min at room temperature, then gel filtration on Superose 6. The following applies: both partners purified.
In data set [4] the target is T2, Atg9^core (Atg9^281–779), reconstituted in proteoliposomes (S. cerevisiae, UniProt Q12142 281-779).
T2 construct: Atg9, S. cerevisiae BY4741, conserved core region, residues 281–779; modified pET28a(+) vector; about 50% of the protein in the proteoliposomes has its cytoplasmic domains outside; liposomes of cholesterol, POPE, POPC, POPS, without PI; also called Atg9–PLs; Atg9-PL; source: E. coli Rosetta, solubilised in LDAO, purified (Ni-NTA, SEC), reconstituted in liposomes; not shown: His tag, C-terminal, …
T2 sequence (looked up): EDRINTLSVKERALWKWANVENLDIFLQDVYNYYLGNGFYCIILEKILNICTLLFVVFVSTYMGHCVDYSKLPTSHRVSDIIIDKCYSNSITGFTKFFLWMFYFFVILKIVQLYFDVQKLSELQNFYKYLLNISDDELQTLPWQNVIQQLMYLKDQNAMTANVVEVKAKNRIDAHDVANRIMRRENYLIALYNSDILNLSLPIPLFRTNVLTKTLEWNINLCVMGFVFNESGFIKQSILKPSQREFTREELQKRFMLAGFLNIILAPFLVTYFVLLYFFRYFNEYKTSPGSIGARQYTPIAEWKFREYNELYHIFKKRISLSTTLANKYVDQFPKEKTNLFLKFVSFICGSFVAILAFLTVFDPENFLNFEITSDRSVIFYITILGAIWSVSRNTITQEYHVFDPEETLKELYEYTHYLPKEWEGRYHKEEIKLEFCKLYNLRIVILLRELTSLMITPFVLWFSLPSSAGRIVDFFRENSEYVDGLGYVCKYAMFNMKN
In words: co-floatation with proteoliposomes; Atg9 variant held in proteoliposomes (synthetic lipids without PI), partner in solution at 1:1, Nycodenz step gradient, 650,000g 2 h at 4 °C, 25 mM HEPES pH 7.0, 100 mM NaCl; top fraction read by SDS–PAGE or α-myc immunoblot. The following applies: both partners purified.

B1: Atg13(P), Atg13 phosphorylated by Atg1 in vitro (natural protein, S. cerevisiae, UniProt Q06628 1-738, looked up)
chain: MVAEEDIEKQVLQLIDSFFLKTTLLICSTESSRYQSSTENIFLFDDTWFEDHSELVSELPEIISKWSHYDGRKELPPLVVETYLDLRQLNSSHLVRLKDHEGHLWNVCKGTKKQEIVMERWLIELDNSSPTFKSYSEDETDVNELSKQLVLLFRYLLTLIQLLPTTELYQLLIKSYNGPQNEGSSNPITSTGPLVSIRTCVLDGSKPILSKGRIGLSKPIINTYSNALNESNLPAHLDQKKITPVWTKFGLLRVSVSYRRDWKFEINNTNDELFSARHASVSHNSQGPQNQPEQEGQSDQDIGKRQPQFQQQQQPQQQQQQQQQQQRQHQVQTQQQRQIPDRRSLSLSPCTRANSFEPQSWQKKVYPISRPVQPFKVGSIGSQSASRNPSNSSFFNQPPVHRPSMSSNYGPQMNIEGTSVGSTSKYSSSFGNIRRHSSVKTTENAEKVSKAVKSPLQPQESQEDLMDFVKLLEEKPDLTIKKTSGNNPPNINISDSLIRYQNLKPSNDLLSEDLSVSLSMDPNHTYHRGRSDSHSPLPSISPSMHYGSLNSRMSQGANASHLIARGGGNSSTSALNSRRNSLDKSSNKQGMSGLPPIFGGESTSYHHDNKIQKYNQLGVEEDDDDENDRLLNQMGNSATKFKSSISPRSIDSISSSFIKSRIPIRQPYHYSQPTTAPFQAQAKFHKPANKLIDNGNRSNSNNNNHNGNDAVGVMHNDEDDQDDDLVFFMSDMNLSKEG
modifications: phosphoserine at 428, 429 and 496 and at several other positions (Supplementary Table 1)
notes: Atg13, S. cerevisiae BY4741; also called phosphorylated Atg13; source: E. coli Rosetta, purified; phosphorylated by adding ATP to fully assembled Atg1^PC
In the case of B1, the binding result in the data set with Atg1 [1] is recorded as “binds”.

In the case of B2, in the data set with Atg1 [2], the binding result is “binds”.

B3: Atg17 (natural protein, S. cerevisiae, UniProt Q06410 1-417, looked up)
chain: MNEADVTKFVNNARKTLTDAQLLCSSANLRIVDIKKKLSSWQLSISKLNFLIVGLRQQGKFLYTILKEGIGTKLIQKQWNQAVLVVLVDEMKYWQYEITSKVQRLDGIVNELSISEKDDTDPSKLGDYISRDNVNLLNDKLKEVPVIERQIENIKLQYENMVRKVNKELIDTKLTDVTQKFQSKFGIDNLMETNVAEQFSRELTDLEKDLAEIMNSLTQHFDKTLLLQDKKIDNDEREELFKVVQGDDKELYNIFKTLHEVIDDVDKTILNLGQFLQAKIKEKTELHSEVSEIINDFNRNLEYLLIFKDISNLIDSFKNSCTQDIQTTKELCEFYDNFEESYGNLVLEAKRRKDVANRMKTILKDCEKQLQNLDAQDQEERQNFIAENGTYLPETIWPGKIDDFSSLYTLNYNVKNP
notes: Atg17, S. cerevisiae BY4741, open reading frame from genomic DNA; expressed from pST39; also called full-length Atg17; Atg17-dimer; source: E. coli Rosetta, purified (Ni-NTA, SEC); not shown: His6, N-terminal, cleaved
B3: in data set [3], the “stoichiometry N” value amounted to 2. For the same molecule, the binding result (in the data set with Atg13; in data set [4]) was “binds” in each case.
